These results are taken from the DeepSol protein solubility set.

The nature of the series: soluble on expression in E. coli; label from the status in PepcDB or PDB records.
Take “MLFELLYTSIAPAGLSDTELLSILEKARAKNQALDITGMLVYHNREIMQILEGEELKVRGLFQTIFQDERHTSVEVFYQGNIDHRAFSEWSMAFKLLDENTVKKMLIGYENFNPAKSPISMIASSPNRGKKTFLKLRDSL”: the “soluble on expression in E. coli” value was “soluble”.
For “MGSDKIHHHHHHMKVLLTRPEGRNQQMADALTQLGIGYHLCPLLEITPSNTPPKASFFSADKLVFISANAVYFAANNLNNHFPMHCEYFAVGEATQMALAEYQVVSQSAPSSQQDSEGLLSLSQLQDVELQKITIVRGEGGRETLAQTLSERGANVDYWQVYQRSKPALDPKSVCQQWQDLGIDTLVLTSGEALANLMELVPKELFAWLRSCHMIVPSHRVQVQAISQGFHRVSNANGASTQAILTALAL” the value was “not soluble”.
For “HHHHHHSEEEAIQIIADPPLPPASFTLRDYVDHSETLQKLVLLGVDLSKIEKHPEAANLLLRLDFEKDIKQMLLFLKDVGIEDNQLGAFLTKNHAIFSEDLENLKTRVAYLHSKNFSKADVAQMVRKAPFLLNFSVERLDNRLGFFQKELELSVKKTRDLVVRLPRLLTGSLEPVKENMKVYRLELGFKHNEIQHMITRIPKMLTANKMKLTETFDFVHNVMSIPHHIIVKFPQVFNTRLFKVKERHLFLTYLGRAQYDPAKPNYISLDKLVSIPDEIFCEEIAKASVQDFEKFLKTL” the value was “soluble”.
Regarding “MSLKQLPKREELPENLTWDLTKIFSSDQEFDEKYLELSEELKQSEKHKGTLDQGASQFLNAIEFVLRVYRQTEVIYVYAHLKNDQDTGNTDYQALYARASSLFSKVSEAVSWFEPEILQLSDDQIWQYFKEEPKLEVYRHYIQQIVDNRAHVLSAEQESLLAGAGEIFDASSDTFAVLNNADLVFPTIEGENGEIVQLSHGVYGQLLESTDRRVREAAFKGLYSVYEQFRNTFASTLGTHIKGHNFKAKVRNYSSAREASLSNNHIPESVYDTLVDVVNKHLPLLHRYMELRKRLLEVEKLHMYDLYTPVLGEAPITFTYEEAKEKALEALKPMGEEYMAIVEKAFSERWIDVVENKGKRSGAYSSGSYDTNPYILLNWHDTLDQLFTLVHEMGHSVHSYFTRSNQPYVYGDYSIFLAEIASTTNENILTEYLLETEKDPRVRAYVLNHYLDGFKGTVFRQTQFAEFEHFMHTEDEKGVPLTSEYLSDSYGKLNAKYYGPAVEEDPEIKFEWSRIPHFYYNYYVFQYSTGFSAASALAKKILNQEPEALENYLAYLKAGNSDYPVEVMKKAGVDMTQAAYIEDAMSMFEQRLNELEELIDREGHHHHHH”, the “soluble on expression in E. coli” value was “soluble”.
For “MSLGKPEFYDFCVHAVPDGANAVEELSSLSRHLGYSGIALANHSDKLPSKKPVLPSIEGFEVFRGIELVEENPSKLHGLVGKFRSSMDVLIVHGGSEAVNRAALENPRVDILNHPAFDKSSGLNQVLAKAAAENGVAIGITLRPLLHSRGSRRIRMLSDLKANLELARKYDVPLVLCSDAMSCYDLRSPMETLAFAEVCGLEEDEALDALSTVPKKIIKKNRPGPGYVREGIEVLEGEGHHHHHH” the value was “not soluble”; for “MAHHHHHHMSCLNVQPVQLPITNKFRNLPAGKPSHRHESTFCRFFSDTTEKECKGSRRNINHRNKSSIFDNVEENDIIDNTKINQYNNVKKRFVSNNSLEFKKTFQKNINYVPNEKYGKKNIPDVRNLYIFSRQELNSDTKERKSSKKISNYSLEKNPNKWGVDVLKYNLPSPKKIYRHVDNLTTCLVPKISEDSFIPKKNKKYYVTHLEKSLCPKENILLLNSKKKLIHLHQSKLEMNCVPKDYEQEINKNKPVFLERNLNNNLIPIVECKRRTFHVNDTCKNKQCSINFSCERKPSPFRSGKRIGYIFTRNDNPTFFF”, “not soluble”; for “MKAAEHDLLTIELAPRRRDELQIHNKKIAEVDHWLKNVFSESNKQLGVMYLTGPAGSGKSTTVEVMCTEQNIEIIEYSPEYLHNEDFECEKPDFTQLRRFLLRRHGSLRGGGLKKRLLLVTELPDQAYSDAEKFREDLSEVLQHIWHPVIFCLTNSIACWNLNPDRLFTKDFNIMNGIDTVTFNPVADSFMKKALVRASNCLSSPLSDAKLNVIGEEAGGDLRIAMNMLQMNSIGPNADRRSGNSVICASKANREEAFHMIGRILYAKRVNPNVPKPSRFSKRRRKSAPIPEPLVRTELEHDPTDIITMSSMTSEKLLDFLFQNEPIFCSNISKYRYVAETFSMCDFLTGDWTTRKSLPEDYVAQMATRSVMWNNYKEPRPGTLFAVGRPLRSSLEKHTARTKLELQRLPMIGAKDYAALTCPYITIIKDIIDPQRIEYFLSRPMDINWQWGNDKIEEHLEKQYALDYKGRKKHRLPLHKAPKPSGKIIEVVDLEEEEEKFTIEESSDDSFEEF”, “not soluble”.
The value for “MLELKPPLVLLSGPAGFGEYLKLMDHRYVGGVLLKTVTLHPKEGNPTPRMADSDFYVINRIGLENPGIHAFVENIPELPVPMIASLGGDSFEEYLEVARVFKKVADRFYAVEFNFSCPNVKEGGLSIVKNAEEWKKLLNTLRKELPDSFLIAKVGVEGIFVEDAAEFVMKTGWDGITLVNTVRGLHFEKDTMILGGLSGPVLKPIALRAVYEVKKRFPELFVIASGGVYSVKDAEEFLKVGADVIGVGSALFKDPGVVEEIGKYLLEVKR” was “soluble”.
The value for “MGSDKIHHHHHHMKILVVGAGAVGGYFGARLAEKGEDVTFLVRERRFEELRAGLQVKSLHGDITCSPRLIRTGEKGTFDVILLSTKAYHLEQVLEDIEPFVATDTYILPLLNGMAHLKQLEQHFGAERVLGGLCFIESTLDGKGHIVQTSPSHHLLFGPLPGTRTDRLEELKQHLTGTAAPINYSDTITRDMWNKYLFITTFSGVTSLFRSAIGPIRSQEEGMMMIRRLATEAKEAMERQGAVFSDGIEQIQQQQIAQMDETMKSSLQRDMEKGNEVESAHLFGTLLSKDEATQVMLPAIYANLKIYRMSRKDV” was “not soluble”; that for “DLYRRQQGELKQTKLQNSILLSVSHDLRTPLATIIGTLTTLNEYMPKLNDLERKELLDSATSESHRLHQYIENLLQATKLQHGTLKITKKDEPIANIVRDAVSRLPNYTEKVSMNMDDSVGYLSVSRSL” was “not soluble”; that for “MAKKIVIIGAGAGGGISLSKLRRVLKDEDVDITIIDKLGRTDFQPSYIFLSIGQKRVKDLSRDFNLLNGGHVKTVKDEVVSVDAQNRIVNTLKGKYSYDYLIMSPGPDIKKDSFEGIEATDSVWTLEDSLKLRAKIKEFNGGKILISVSSQWYKCPPVPWEMALLLDDYFRKKNMRDKVEITVAHPVSKPMEMYGPGLSDPFAKMLEKRSIGGLYGKKLLGIDASKKEAVFEDDDRLRFDLSIVAPPHSPPSFIKDNEYLRSKNGWASTNLKDFRNPKYDDIFAIGDVIAPTIQIGMAGVLAHFQADTASSAIAEDIIGYPFIDYNKNAVCIIATGSSGVFSYCDLSAKLTDPSVKFPECRMIGNDPLFRFAHDLYEVNFLSSIYGNRLEHHHHHH” was “not soluble”.
As for “MSLENVDPFDIIRQFRSVIAKTSLQASSNIEGLDTVWNSDLVLEANFWHLVEILLSFRTSQEFLDKESSISSKPYNSSIIFEKELLQKDKNLYQIWLIIVWIEGNFPFVEKPSNIPSSKWTNTLVTSGLMSSDLDYPLRDCSVVINDKDKADDHVFYKYVYELLLCGNYDQIFEECKLSDNITLNMIMCGMQEYVDPSIDVQLKDEFEVQQGVKKHSLWRRAVYSLSQNDKLDKYERAIYSYLAGDIPNDEVLQTLNWDSELLVYLNQILKIEVENYLLQNGKVNNEGHHHHHH”, the “soluble on expression in E. coli” value is reported as “soluble”.
For “MKAAVVEQFKEPLKIKEVEKPTISYGEVLVRIKACGVCHTDLHAAHGDWPVKPKLPLIPGHEGVGIVEEVGPGVTHLKVGDRVGIPWLYSACGHCDYCLSGQETLCEHQKNAGYSVDGGYAEYCRAAADYVVKIPDNLSFEEAAPIFCAGVTTYKALKVTGAKPGEWVAIYGIGGLGHVAVQYAKAMGLNVVAVDIGDEKLELAKELGADLVVNPLKEDAAKFMKEKVGGVHAAVVTAVSKPAFQSAYNSIRRGGACVLVGLPPEEMPIPIFDTVLNGIKIIGSIVGTRKDLQEALQFAAEGKVKTIIEVQPLEKINEVFDRMLKGQINGRVVLTLEDK” the value was “soluble”; for “MATSFYTGGGEDGDGFNPRVHARIAEREGFQLASGSEDPRTLFVANLDPAITDEFLATLFNQIGAVMKAKIIFEGLNDPYAFVEFSDHNQATLALQSHNGRELLEKEMHVTWAFEPREPGENRSKPETSRHFHVFVGDLCSEIDSTKLREAFVKFGEVSEAKIIRDNNTNKGKGYGFVSYPRREDAERAIDEMNGAWLGRRTIRTNWATRKPDEDGERGGDRGDRRGGGGGGRDRYHNQSEKTYDEIFNQAAADNTSVYVGNIANLGEDEIRRAFDRFGPINEVRTFKIQGYAFVKFETKESAARAIVQMNNADIGGQIVRCSWGKSGDSGKPSERGSGGGGGSGNYGYGYGNSGGGGGSGGPGNSQFSNFNQRPPPSGNGGSGGGSGGQNNQYWQYYSQYYNNPHLMQQWNNYWQKDGPPPPPAAAASSTGGN”, “not soluble”.
The value for “STTEIGWWKLTFLRKKKSTPKVLYEIPDTYAQTEGDAEPPRPDAGGPNSDFNTRLEKIVDKSTKGKHVKVSNSGRFKEKKKVRATLAENPNLFDDHEEGRSSK” was “soluble”; that for “MGVMNTGETLDEKAIVASAEKALSDIAAIRTEVSKVIFGQEKVVQNTLLAILSGGHALLVGVPGLAKTKLVTTLGTVLGLDANRIQFTPDLMPSDILGSEVMDQDENGRRSFRFIKGPIFGQLLMADEINRASPRTQSALLQAMQEYHITMAGQTYELPKPFHVLATQNPLEQEGTYPLPEAQLDRFLLQVDVDYPELAAERQILLDTTGTASGEARPVIGAERLMEIQALIRQMPVSDKVVDAILSLVRSARPGHGNKLTDKNVVWGPGPRAGQSLMLTARARALYEGRLAPSLDDVHALAEPVLEHRMALTFAARAEGMSVRDVIAALVEQAKN” was “not soluble”; that for “SELLCHEVDPVRRAVRDRNLLRDDRVLQNLLTIEERYLPQCSYFKCVQKDIQPYMRRMVATWMLEVCEEQKCEEEVFPLAMNYLDRFLAGVPTPKSHLQLLGAVCMFLASKLKETSPLTAEKLCIYTDNSIKPQELLEWELVVLGKLKWNLAAVTPHDFIEHILRKLPQQREKLSLIRKHAQTFIALCATDFKFAMYPPSMIATGSVGAAICGLQQDEEVSSLTCDALTELLAKITNTDVDCLKACQEQIEAVLLNSLQQYRQDQRDGSKSEDELDQASTPTDVRDIDL” was “soluble”.
As to “MAKPVVIGSRSFRTQSSALDHYKALLHRYQDGQRIADPADHTDLVALIERFDPVLDAVGEPAKGAGQIAHFERRLNTGIGWSTPGFWVVRQDGTETDFSYIDAVKGRPKGRSQDFYNACRQAVALDLVLAKKQAFAQYGDDQGRVECELTGKMVTIDDAHLDHAWPYFSHMVSGFRAARGWSRDIPDGIVSTPADGQTTATFLDSAVTEAFRAFHHDQAVLRVLSREANLQTASSARRPKVARPVRLALEHHHHHH”, the “soluble on expression in E. coli” value was “soluble”.
The value for “MGSDKIHHHHHHMSGPGTYSPPSSRLQYLGCCAGVAGARLVPGPLGGRFPFSNCVLVEDAGFKVLVDTGCEPWERGLVDVDVVVFTHFHPDHIRGFHRLRAGRVAAPEGEEPYAGRLERLALRFAGERWREWISMARLVMDLEGVPEPGEYFRPGEDLCFRGVCIKTYPARGHLQTHTLLELPGGLVHLVDIDLTGFGPWYGNPEASPELFLLDIEAAAEMEARGYLSAHKDRVYSRGEGVEALARFAGRLVEQAEGVYKALEAAGRPLWPWELTGRGIIYRRYLEGMEAIMSYFEGVMIEKLLGLLGLWGCTRKTPGGYVARDCHLGVIKDRITRNILSLA” was “not soluble”.
